We go through one sequence from patent US20240318159.

In the data set the test system is mND1 TALE_L-BE_41-N(G108) + TALE_R-BE_41-C(G43) split base editor (synthetic). Nature of the data set: cell_activity. The conditions noted are these: m.2820G>A allele in mouse cells.

On to “CATTAGTAGAACGCA (double strand) [mND1 G2820 target]”, for which the activity came out at 56.4%.
